The source of these data is paper PMC12412787.

The data set concerns the target T1, Pyl1p (Yarrowia lipolytica, UniProt Q6CBN1 1-600).
T1 sequence: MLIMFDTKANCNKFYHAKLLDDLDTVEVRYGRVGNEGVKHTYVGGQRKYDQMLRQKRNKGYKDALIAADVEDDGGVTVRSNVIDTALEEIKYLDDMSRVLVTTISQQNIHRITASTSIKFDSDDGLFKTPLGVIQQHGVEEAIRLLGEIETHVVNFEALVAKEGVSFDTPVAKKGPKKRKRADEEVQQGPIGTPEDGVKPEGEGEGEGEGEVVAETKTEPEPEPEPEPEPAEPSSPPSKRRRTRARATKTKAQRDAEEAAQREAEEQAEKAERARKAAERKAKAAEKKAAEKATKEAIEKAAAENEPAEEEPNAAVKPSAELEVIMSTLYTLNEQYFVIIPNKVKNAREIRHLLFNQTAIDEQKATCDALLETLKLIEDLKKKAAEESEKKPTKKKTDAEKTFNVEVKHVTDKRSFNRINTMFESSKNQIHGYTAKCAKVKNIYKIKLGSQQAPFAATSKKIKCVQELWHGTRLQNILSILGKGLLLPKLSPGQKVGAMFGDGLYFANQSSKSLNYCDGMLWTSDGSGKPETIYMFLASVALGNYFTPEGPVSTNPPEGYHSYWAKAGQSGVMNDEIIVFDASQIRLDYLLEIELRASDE
Kind of data set: EMSA. On the technique in general: A gel shift assay detects complexes by their altered migration in electrophoresis.

B1: dsTEL probe (YlipTEL_G/YlipTEL_C) (dsDNA)
DNA 1: TTAGTCAGGGTTAGTCAGGG
DNA 2: CCCTGACTAACCCTGACTAA
For the molecule B1, the binding result is on record as “binds”.
